From US11504441B2, “Radiolabeled compounds targeting the prostate-specific membrane antigen” (PROVINCIAL HEALTH SERVICES AUTHORITY, priority 2019, dated 2022)

Assay: in vivo
Parameters: species or system mice
Details: male, NODSCID 1L2RγKO, mouse, iv, total radioactivity

SMILES: O=C(O)CCC[C@H](NC(=O)N[C@@H](CCCCNC(=O)[C@H](Cc1c2ccccc2cc2ccccc12)NC(=O)[C@H]1CC[C@H](CNC(=O)[C@H](CCCCNC(=O)CN2CCN(CC(=O)O)CCN(CC(=O)O)CCN(CC(=O)O)CC2)NC(=O)CNC(=O)CCCc2ccc(Cl)cc2)CC1)C(=O)O)C(=O)O [177Lu-HTK03153, metal not drawn]
- tissue uptake at 1 h (Adrenal glands uptake): 4.52 ± 0.46 %ID/g
- tissue uptake at 4 h (Adrenal glands uptake): 3.5 ± 0.46 %ID/g
- tissue uptake at 24 h (Adrenal glands uptake): 2.35 ± 0.47 %ID/g
- tissue uptake at 72 h (Adrenal glands uptake): 1.2 ± 0.26 %ID/g
- tissue uptake at 120 h (Adrenal glands uptake): 0.82 ± 0.19 %ID/g
- tissue uptake at 1 h (Blood uptake): 24.7 ± 2.11 %ID/g
- tissue uptake at 4 h (Blood uptake): 18.8 ± 1.16 %ID/g
- tissue uptake at 24 h (Blood uptake): 7.44 ± 1.12 %ID/g
- tissue uptake at 72 h (Blood uptake): 1.46 ± 0.58 %ID/g
- tissue uptake at 120 h (Blood uptake): 0.37 ± 0.13 %ID/g
- tissue uptake at 1 h (Bone uptake): 1.26 ± 0.15 %ID/g
- tissue uptake at 4 h (Bone uptake): 0.83 ± 0.15 %ID/g
- tissue uptake at 24 h (Bone uptake): 0.4 ± 0.08 %ID/g
- tissue uptake at 72 h (Bone uptake): 0.16 ± 0.06 %ID/g
- tissue uptake at 120 h (Bone uptake): 0.06 ± 0.04 %ID/g
- tissue uptake at 1 h (Brain uptake): 0.35 ± 0.03 %ID/g
- tissue uptake at 4 h (Brain uptake): 0.27 ± 0.03 %ID/g
- tissue uptake at 24 h (Brain uptake): 0.13 ± 0.02 %ID/g
- tissue uptake at 72 h (Brain uptake): 0.05 ± 0.02 %ID/g
- tissue uptake at 120 h (Brain uptake): 0.03 %ID/g
- tissue uptake at 1 h (Fat uptake): 1.61 ± 0.36 %ID/g
- tissue uptake at 4 h (Fat uptake): 1.46 ± 0.36 %ID/g
- tissue uptake at 24 h (Fat uptake): 0.66 ± 0.16 %ID/g
- tissue uptake at 72 h (Fat uptake): 0.3 ± 0.13 %ID/g
- tissue uptake at 120 h (Fat uptake): 0.19 ± 0.09 %ID/g
- tissue uptake at 1 h (Heart uptake): 5.95 ± 0.44 %ID/g
- tissue uptake at 4 h (Heart uptake): 4.26 ± 0.44 %ID/g
- tissue uptake at 24 h (Heart uptake): 1.9 ± 0.25 %ID/g
- tissue uptake at 72 h (Heart uptake): 0.68 ± 0.25 %ID/g
- tissue uptake at 120 h (Heart uptake): 0.32 ± 0.07 %ID/g
- tissue uptake at 1 h (Intestine uptake): 1.56 ± 0.16 %ID/g
- tissue uptake at 4 h (Intestine uptake): 1.22 ± 0.16 %ID/g
- tissue uptake at 24 h (Intestine uptake): 0.78 ± 0.1 %ID/g
- tissue uptake at 72 h (Intestine uptake): 0.3 ± 0.1 %ID/g
- tissue uptake at 120 h (Intestine uptake): 0.18 ± 0.08 %ID/g
- tissue uptake at 1 h (Kidneys uptake): 10 ± 1.09 %ID/g
- tissue uptake at 4 h (Kidneys uptake): 9.1 ± 1.09 %ID/g
- tissue uptake at 24 h (Kidneys uptake): 8.81 ± 1.06 %ID/g
- tissue uptake at 72 h (Kidneys uptake): 4.95 ± 2.39 %ID/g
- tissue uptake at 120 h (Kidneys uptake): 2.81 ± 0.35 %ID/g
- tissue uptake at 1 h (Lacrimal uptake): 0.35 ± 0.07 %ID/g
- tissue uptake at 4 h (Lacrimal uptake): 0.35 ± 0.14 %ID/g
- tissue uptake at 24 h (Lacrimal uptake): 0.18 ± 0.06 %ID/g
- tissue uptake at 72 h (Lacrimal uptake): 0.05 ± 0.05 %ID/g
- tissue uptake at 120 h (Lacrimal uptake): 0.02 ± 0.02 %ID/g
- tissue uptake at 1 h (Liver uptake): 3.61 ± 0.65 %ID/g
- tissue uptake at 4 h (Liver uptake): 3.19 ± 0.65 %ID/g
- tissue uptake at 24 h (Liver uptake): 1.52 ± 0.25 %ID/g
- tissue uptake at 72 h (Liver uptake): 0.73 ± 0.21 %ID/g
- tissue uptake at 120 h (Liver uptake): 0.4 ± 0.03 %ID/g
- tissue uptake at 1 h (Lungs uptake): 10.8 ± 1.38 %ID/g
- tissue uptake at 4 h (Lungs uptake): 9.4 ± 1.38 %ID/g
- tissue uptake at 24 h (Lungs uptake): 3.93 ± 0.41 %ID/g
- tissue uptake at 72 h (Lungs uptake): 1.87 ± 1.31 %ID/g
- tissue uptake at 120 h (Lungs uptake): 0.56 ± 0.12 %ID/g
- tissue uptake at 1 h (Muscle uptake): 1.54 ± 0.16 %ID/g
- tissue uptake at 4 h (Muscle uptake): 1.19 ± 0.16 %ID/g
- tissue uptake at 24 h (Muscle uptake): 0.56 ± 0.1 %ID/g
- tissue uptake at 72 h (Muscle uptake): 0.18 ± 0.07 %ID/g
- tissue uptake at 120 h (Muscle uptake): 0.07 ± 0.01 %ID/g
- tissue uptake at 1 h (Pancreas uptake): 2.17 ± 0.21 %ID/g
- tissue uptake at 4 h (Pancreas uptake): 1.6 ± 0.21 %ID/g
- tissue uptake at 24 h (Pancreas uptake): 0.77 ± 0.09 %ID/g
- tissue uptake at 72 h (Pancreas uptake): 0.29 ± 0.13 %ID/g
- tissue uptake at 120 h (Pancreas uptake): 0.15 ± 0.04 %ID/g
- tissue uptake at 1 h (Salivary uptake): 3.56 ± 0.39 %ID/g
- tissue uptake at 4 h (Salivary uptake): 2.86 ± 0.39 %ID/g
- tissue uptake at 24 h (Salivary uptake): 1.25 ± 0.14 %ID/g
- tissue uptake at 72 h (Salivary uptake): 0.68 ± 0.22 %ID/g
- tissue uptake at 120 h (Salivary uptake): 0.37 ± 0.04 %ID/g
- tissue uptake at 1 h (Seminal uptake): 1.3 ± 0.32 %ID/g
- tissue uptake at 4 h (Seminal uptake): 1.2 ± 0.32 %ID/g
- tissue uptake at 24 h (Seminal uptake): 0.7 ± 0.5 %ID/g
- tissue uptake at 72 h (Seminal uptake): 0.23 ± 0.11 %ID/g
- tissue uptake at 120 h (Seminal uptake): 0.15 ± 0.05 %ID/g
- tissue uptake at 1 h (Spleen uptake): 2.54 ± 0.27 %ID/g
- tissue uptake at 4 h (Spleen uptake): 1.54 ± 0.27 %ID/g
- tissue uptake at 24 h (Spleen uptake): 1.21 ± 0.24 %ID/g
- tissue uptake at 72 h (Spleen uptake): 1.03 ± 0.46 %ID/g
- tissue uptake at 120 h (Spleen uptake): 1.53 ± 0.71 %ID/g
- tissue uptake at 1 h (Stomach uptake): 0.89 ± 0.15 %ID/g
- tissue uptake at 4 h (Stomach uptake): 0.71 ± 0.15 %ID/g
- tissue uptake at 24 h (Stomach uptake): 0.68 ± 0.15 %ID/g
- tissue uptake at 72 h (Stomach uptake): 0.31 ± 0.17 %ID/g
- tissue uptake at 120 h (Stomach uptake): 0.15 ± 0.1 %ID/g
- tissue uptake at 1 h (Tail uptake): 5.38 ± 5.96 %ID/g
- tissue uptake at 4 h (Tail uptake): 6.89 ± 5.96 %ID/g
- tissue uptake at 24 h (Tail uptake): 1.55 ± 0.34 %ID/g
- tissue uptake at 72 h (Tail uptake): 0.44 ± 0.15 %ID/g
- tissue uptake at 120 h (Tail uptake): 0.24 ± 0.04 %ID/g
- tissue uptake at 1 h (Testes uptake): 3.24 ± 0.4 %ID/g
- tissue uptake at 4 h (Testes uptake): 3.45 ± 0.4 %ID/g
- tissue uptake at 24 h (Testes uptake): 2.15 ± 0.33 %ID/g
- tissue uptake at 72 h (Testes uptake): 1.38 ± 0.48 %ID/g
- tissue uptake at 120 h (Testes uptake): 0.98 ± 0.22 %ID/g
- tissue uptake at 1 h (Thyroid uptake): 4.8 ± 0.32 %ID/g
- tissue uptake at 4 h (Thyroid uptake): 3.57 ± 0.32 %ID/g
- tissue uptake at 24 h (Thyroid uptake): 1.95 ± 0.32 %ID/g
- tissue uptake at 72 h (Thyroid uptake): 0.85 ± 0.28 %ID/g
- tissue uptake at 120 h (Thyroid uptake): 0.52 ± 0.12 %ID/g
- tissue uptake at 1 h (Tumor uptake): 14.2 ± 7.67 %ID/g
- tissue uptake at 4 h (Tumor uptake): 27.9 ± 7.67 %ID/g
- tissue uptake at 24 h (Tumor uptake): 57.2 ± 10.1 %ID/g
- tissue uptake at 72 h (Tumor uptake): 69.1 ± 13.4 %ID/g
- tissue uptake at 120 h (Tumor uptake): 86.4 ± 8.05 %ID/g
